The supplement of paper PMC10567573

B1: MLH1 (parent)
chain: YNIATRRKALKNPSEEYGKILEVV
B2: PBXIP1 (parent)
chain: EKQKQPRWREGTKDSHDPLPSWAE

Variants of: B1
Test: protein stability index of a GFP-peptide fusion (GPS, HEK-293T) (PSI 1-6); higher = more stable
Conditions: c terminus: a fixed tail appended
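Also: lentivirally expressed fusions sorted by FACS into six bins by GFP to DsRed ratio, PSI derived from sequencing read proportions per bin multiplied by bin number.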

Protein stability index, by site and new letter:
G18: A 2.21 | R 2.4 | Y 2.34 | P 3.03 | V 1.95 | K 2.97 | D 3.15 | T 2.19 | Q 2.7 | W 1.46 | L 2.15 | I 2.16 | F 2.16 | C 2.5 | E 3.29 | N 3.13
E15: K 2.06 | C 2.17 | R 2.46 | H 2.43 | W 1.78 | S 2.49 | D 2.7 | I 2.46 | A 2.1 | N 2.43 | G 1.76 | Y 2 | L 1.99 | Q 2.15 | M 2.54 | F 2.29 | P 2.21 | V 1.85
I20: E 3.54 | A 3.46 | G 3.52 | W 2.82 | C 3.89 | Y 3.18 | P 3.3 | M 3.13 | T 3.62 | S 4.11 | F 2.39 | D 4.34 | Q 3.8 | N 3.54 | R 3.6 | V 4.05 | H 3.59
I3: K 2.98 | F 2.85 | S 3 | Q 3.41 | G 2.97 | H 2.69 | C 2.69 | A 3.11 | R 2.71 | E 2.74 | N 3.29 | D 3.19 | P 3.14 | M 3.08
A9: E 2.99 | D 3.2 | Y 2.09 | W 2.75 | L 2.17 | V 2.55 | K 2.71 | Q 2.55 | S 2.93
E22: M 2.09 | V 3.63 | F 2.32 | T 2.19 | A 2.59 | G 2.42 | P 2.49 | C 1.75 | Y 2.27 | K 2.18 | H 2.43 | D 3.33 | Q 2.42 | L 2.54
T5: S 3.03 | F 2.27 | V 3.09 | A 2.54 | I 2.17 | C 2.17 | G 2.82 | E 3.54 | P 2.82 | N 2.57 | L 2.85 | W 1.83 | D 3.06 | Y 2
K11: S 2.48 | M 2.85 | E 3.48 | W 2.19 | V 2.53 | I 2.04 | F 1.95 | L 2.43 | N 2.69
L10: H 3 | A 3.09 | E 3.53 | T 3.14 | P 3.23 | F 3.02 | M 2.86 | K 3.31 | C 2.84 | G 2.99 | V 3.07 | I 3.22 | R 3.13
N12: Y 2.53 | G 2.71 | H 2.74 | F 1.97 | V 1.98 | P 3.11 | D 3.32 | R 3.3 | A 2.55 | W 1.94 | S 2.76 | E 3.35
N2: R 2.5 | T 2.45 | F 1.71 | H 2.07 | C 2.18 | D 3.14 | G 2.7 | Y 2.43 | M 1.85 | Q 2.51 | L 1.9 | V 1.87 | E 3.12
K8: H 2.48 | E 3.25 | L 1.99 | D 3.09 | W 1.94 | C 1.87 | G 3.37 | F 2.27 | V 2.2 | R 2.85 | I 2
S14: Q 2.79 | A 2.98 | N 2.71 | W 1.43 | D 2.98 | T 2.85 | R 2.94 | E 3.56 | L 1.78 | F 2.01
E16: K 2.1 | V 2.49 | F 1.62 | L 1.99 | Y 1.88 | R 2.5 | M 2.15 | P 2.17 | G 2.89 | S 2.71 | A 2.37 | C 1.85 | D 2.75
Y17: K 3.37 | P 4.17 | S 3.75 | A 3.52 | E 4.04 | T 3.72 | D 4.3 | C 3.05 | N 4.08 | Q 3.97 | V 3.16 | R 3.57 | I 2.95 | M 3.11 | H 3.53 | W 2.66 | L 2.63
Y1: I 2.48 | A 3.18 | Q 3.6 | D 3.69 | V 2.76 | M 2.76 | K 3.52 | F 2.43 | N 3.35 | S 3.29 | W 2.86 | E 3.55
R7: V 2.39 | A 2.5 | C 2.37 | P 3.14 | G 2.78 | K 2.48 | E 3.66 | T 2.95 | W 1.78 | H 2.69 | D 2.84
P13: F 1.96 | I 2.15 | T 2.89 | Y 2.59 | R 2.78 | S 3.05 | W 2.66 | M 2.27 | C 3.26 | N 2.99 | H 2.94 | K 3.19
V23: F 2.1 | H 3.69 | C 3.03 | P 3.41 | D 3.65 | I 2.5 | R 3.22 | Q 3.34 | N 3.43 | K 3.36 | E 4.21 | A 3.69 | G 3.62
R6: C 1.89 | L 1.79 | P 3.15 | V 2.1 | G 2.76 | T 2.32 | W 1.96 | N 2.85 | Q 2.82 | D 3.69 | Y 1.76 | S 2.7 | K 2.99
L21: D 4.42 | T 3.91 | V 3.34 | G 3.52 | Y 2.46 | C 4.26 | I 2.17 | E 4.02 | H 3.61 | A 3.69 | W 2.34 | Q 3.8 | N 4.33 | S 3.76
A4: Q 2.57 | I 2.54 | R 2.97 | C 3.31 | V 2.49 | Y 2.12 | E 3 | W 1.83 | H 2.89 | D 3.15 | N 3.27
K19: E 3.37 | I 1.8 | W 1.65 | C 1.8 | A 2.5 | V 1.74 | H 2.42 | M 2.51 | L 1.63 | N 3.29

Variants of: B2
Test: as above
Conditions: c terminus: a fixed tail appended

Protein stability index of substitutions, site by site:
W22: L 3.24 | Q 5.57 | R 5.4 | T 5.07 | S 4.78 | P 5.49 | Y 4.85 | N 5.48
A23: P 3.89 | Q 2.26 | E 2.39 | F 3.56 | I 2.61 | S 2.01 | N 4.99 | H 4.04 | K 4.51 | Y 4.24 | T 2.08 | M 3.36 | W 2.76 | L 4.81
E24: L 3.02 | I 3.06 | H 3.29 | W 1.95 | R 3.34 | N 3.02 | Y 3.09 | T 2.39 | C 2.66 | D 1.9 | F 3.11 | A 2.62 | S 2.34 | M 3.16 | K 2.89 | P 4.12
